Test results as given in publication PMC10702835, “Recognition of centromere‐specific histone Cse4 by the inner kinetochore Okp1‐Ame1 complex” (EMBO Reports, 2023).
Where no end group is shown, it is not given here.

What was measured:
COMA‐Nkp1‐Nkp2 complex = assay: GST pulldown, COMA-Nkp1-Nkp2; format: binding, Saccharomyces cerevisiae; settings: glutathione agarose, 4°C, 1 h, 20 mM Tris, pH 8.5, 200 mM NaCl, 1 mM TCEP; compared with COMA
Method: (§1) Figure 3 Biochemical investigation of Okp1‐Ame1‐Cse4^END binding and disruptive point mutations • A GST pulldown assay for Cse4 binding. The indicated COMA complex proteins were tested for their association with immobilized GST‐Cse4^END. • B Fluorescence polarization assay for quantification of Cse4 binding affinities (n = 3 independent replicates). FITC‐labeled Cse4^END peptide was incubated with increasing concentrations of the indicated protein complexes. See also Table 1. • C, D GST pulldown assays as in panel A. Cse4^END and its mutants (L41D, L42D, or L41,42A) were tested in panel C. The indicated Okp1‐Ame1 complexes were tested for their association with GST‐Cse4^END in panel D. Source data are available online for this figure.
(§2) GST‐Cse4^28‐60 was mixed with Okp1‐Ame1, COMA, COMA‐Nkp1‐Nkp2, or Okp1^125‐275 – Ame1^124‐231 and the mixed samples were incubated with glutathione agarose resin at 4°C for 1 h in binding buffer containing 20 mM Tris, pH 8.5, 200 mM NaCl and 1 mM TCEP. Resin was washed at least three times with the same buffer to remove unbound protein, and bound protein then eluted with glutathione. Samples of input and eluate were collected for analysis by SDS–PAGE.

[1] = tested on: minimal Okp1‐Ame1 complex (Okp1^125‐275‐Ame1^124‐231); assay: GST pulldown, minimal Okp1-Ame1; format: binding, Saccharomyces cerevisiae; settings: glutathione agarose, 4°C, 1 h, 20 mM Tris, pH 8.5, 200 mM NaCl, 1 mM TCEP
Method: Figure EV3 Further biochemical characterization of the Okp1‐Ame1‐Cse4^END interaction • Pulldown assay showing binding between the truncated Okp1‐Ame1 complex used for crystallography (Okp1^125‐275l‐Ame1^124‐231) and GST‐Cse4^END. • Recombinant proteins used for pulldowns in Fig 3 were tested for their association with GST to determine the level of non‐specific binding. Results of a GST pulldown assay are shown. • The minimal Okp1‐Ame1 complex used for crystallography was tested for its association with FITC‐Cse4^END in a fluorescence polarization experiment. The measured dissociation constant is ~750 nM (see Materials and Methods; n = 3 independent experiments). • GST‐Cse4^END and its mutants were tested for Okp1‐Ame1 binding. • Full‐length mutant Okp1‐Ame1 complex (EYAA or I195Y as indicated) was tested for its association with FITC‐Cse4^END. • Various Okp1‐Ame1 mutants (indicated above) were tested for binding to GST‐Cse4^END. • Various Okp1‐Ame1 mutants were tested for Cse4^END binding as in panel F. Source data are available online for this figure.
GST‐Cse4^28‐60 was mixed with Okp1‐Ame1, COMA, COMA‐Nkp1‐Nkp2, or Okp1^125‐275 – Ame1^124‐231 and the mixed samples were incubated with glutathione agarose resin at 4°C for 1 h in binding buffer containing 20 mM Tris, pH 8.5, 200 mM NaCl and 1 mM TCEP. […]

Okp1‐Ame1 = assay: GST pulldown, Okp1-Ame1; format: binding, Saccharomyces cerevisiae; settings: glutathione agarose, 4°C, 1 h, 20 mM Tris, pH 8.5, 200 mM NaCl, 1 mM TCEP; SDS-PAGE
Method: as §1, §2

COMA complex = assay: GST pulldown, COMA; format: binding, Saccharomyces cerevisiae; settings: glutathione agarose, 4°C, 1 h, 20 mM Tris, pH 8.5, 200 mM NaCl, 1 mM TCEP; compared with COMA-Nkp1-Nkp2
Method: as §1, §2

[2] = target: T1, Okp1‐Ame1(I195Y), full length (S. cerevisiae (budding yeast), UniProt P53298 1-406; P38313 1-324, I195Y); assay: fluorescence polarisation; 20 nM FITC‐Cse4^28‐60, full-length Okp1‐Ame1 titrated; 100 mM HEPES pH 7.5, 200 mM NaCl, 1 mM TCEP; 30 min at room temperature; one site – total binding fit; triplicate; settings: both partners purified
T1 construct: Okp1, budding yeast, full length; Ame1, budding yeast, full length, with I195Y; source: recombinant; copies: 1 + 1
T1 sequence (P53298 whole entry, chain 1 of 2): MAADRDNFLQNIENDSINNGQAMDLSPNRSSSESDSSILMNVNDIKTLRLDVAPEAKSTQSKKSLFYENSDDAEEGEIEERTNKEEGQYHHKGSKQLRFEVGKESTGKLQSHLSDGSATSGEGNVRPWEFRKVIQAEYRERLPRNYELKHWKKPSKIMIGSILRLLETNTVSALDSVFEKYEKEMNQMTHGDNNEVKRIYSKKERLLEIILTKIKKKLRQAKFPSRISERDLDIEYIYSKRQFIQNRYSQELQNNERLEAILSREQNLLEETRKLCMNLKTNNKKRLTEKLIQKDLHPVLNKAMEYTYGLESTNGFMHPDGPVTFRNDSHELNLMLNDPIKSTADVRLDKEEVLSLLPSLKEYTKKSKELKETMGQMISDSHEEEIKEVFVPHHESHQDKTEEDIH
T1 sequence (P38313 whole entry I195Y, chain 2 of 2): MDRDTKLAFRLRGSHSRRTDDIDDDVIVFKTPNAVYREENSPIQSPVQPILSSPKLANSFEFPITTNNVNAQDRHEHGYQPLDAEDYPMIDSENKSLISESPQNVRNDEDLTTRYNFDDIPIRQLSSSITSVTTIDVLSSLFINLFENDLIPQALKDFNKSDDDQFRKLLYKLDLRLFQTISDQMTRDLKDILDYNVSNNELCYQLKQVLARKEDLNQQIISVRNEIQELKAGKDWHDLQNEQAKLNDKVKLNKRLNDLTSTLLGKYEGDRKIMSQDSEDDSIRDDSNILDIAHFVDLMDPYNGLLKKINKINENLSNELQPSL

[3] = target: T2, Okp1‐Ame1 heterodimer, full length, wild type (S. cerevisiae (budding yeast), UniProt P53298 1-406; P38313 1-324); assay: as above; settings: both partners purified
T2 construct: Okp1, inner kinetochore (Ctf19c) protein of budding yeast, full length; Ame1, inner kinetochore (Ctf19c) protein of budding yeast, full length; also called Okp1‐Ame1 (WT); FL; copies: 1 + 1
T2 sequence (P53298 whole entry, chain 1 of 2): as the sequence (P53298 whole entry, chain 1 of 2) above
T2 sequence (P38313 whole entry, chain 2 of 2): as the sequence (P38313 whole entry I195Y, chain 2 of 2) above, with Y195I counted along it

[4] = target: T3, Okp1(EYAA)‐Ame1, full length (S. cerevisiae (budding yeast), UniProt P53298 1-406; P38313 1-324, E235A | Y238A); assay: as above; settings: both partners purified
T3 construct: Okp1, budding yeast, full length, with E235A and Y238A; Ame1, budding yeast, full length; also called okp1‐E235,Y238A; okp1‐E235A,Y238A; source: recombinant; copies: 1 + 1
T3 sequence (P53298 whole entry E235A/Y238A, chain 1 of 2): as the sequence (P53298 whole entry, chain 1 of 2) above, with E235A, Y238A counted along it
T3 sequence (P38313 whole entry, chain 2 of 2): as the sequence (P38313 whole entry I195Y, chain 2 of 2) above, with Y195I counted along it

[5] = target: T4, Okp1‐Ame1 (WT, full length) with 10 μM Nkp1‐Nkp2 (S. cerevisiae (budding yeast), UniProt P53298 1-406; P38313 1-324; Q12493 1-238; Q06162 1-153); assay: fluorescence polarisation; as a2 (20 nM FITC‐Cse4^28‐60, full-length Okp1‐Ame1 titrated, 200 mM NaCl) with 10 μM Nkp1‐Nkp2 added in excess; settings: both partners purified
T4 construct: Okp1, budding yeast, full length; Ame1, budding yeast, full length; Nkp1, budding yeast, full length; Nkp2, budding yeast, full length; the methods call it a titrated complex (Okp1‐Ame1 with Nkp1/2); also called Okp1‐Ame1 W(T) + 10 μM Nkp1‐Nkp2; Okp1‐Ame1 with Nkp1/2; source: E. coli, purified heterodimers Okp1‐Ame1 and Nkp1‐Nkp2, mixed; copies: + + +
T4 sequence (P53298 whole entry, chain 1 of 4): as the sequence (P53298 whole entry, chain 1 of 2) above
T4 sequence (P38313 whole entry, chain 2 of 4): as the sequence (P38313 whole entry I195Y, chain 2 of 2) above, with Y195I counted along it
T4 sequence (Q12493 whole entry, chain 3 of 4): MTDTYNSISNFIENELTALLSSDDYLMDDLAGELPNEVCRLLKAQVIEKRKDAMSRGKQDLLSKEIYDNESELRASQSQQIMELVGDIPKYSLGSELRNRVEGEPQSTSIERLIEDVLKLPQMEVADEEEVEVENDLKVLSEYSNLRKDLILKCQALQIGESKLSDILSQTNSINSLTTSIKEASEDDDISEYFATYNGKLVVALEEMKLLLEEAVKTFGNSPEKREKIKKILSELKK
T4 sequence (Q06162 whole entry, chain 4 of 4): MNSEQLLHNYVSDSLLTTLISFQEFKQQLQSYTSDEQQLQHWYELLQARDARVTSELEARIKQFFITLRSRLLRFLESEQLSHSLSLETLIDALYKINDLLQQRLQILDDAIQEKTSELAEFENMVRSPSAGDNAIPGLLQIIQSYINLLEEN

[6] = target: T5, minimal Okp1^125‐275 – Ame1^124‐231 heterodimer (S. cerevisiae (budding yeast), UniProt P53298 125-275; P38313 124-231); assay: fluorescence polarisation; 20 nM FITC‐Cse4^28‐60, truncated Okp1‐Ame1 titrated; 100 mM HEPES pH 7.5, 600 mM NaCl, 1 mM TCEP; 30 min at room temperature; 20 μM points left out of the fit; settings: both partners purified
T5 construct: Okp1, budding yeast, residues 125-275; Ame1, budding yeast, residues 124-231; no tag; also called truncated Okp1‐Ame1 complex; minimal Okp1‐Ame1 complex used for crystallography; source: E. coli Rosetta 2 (pLysS), pet-Duet co-expression, purified (TALON, TEV cleavage, ion exchange, gel filtration); not shown: His6, N-terminal, cleaved; copies: 1 + 1
T5 sequence (P53298 125-275, chain 1 of 2): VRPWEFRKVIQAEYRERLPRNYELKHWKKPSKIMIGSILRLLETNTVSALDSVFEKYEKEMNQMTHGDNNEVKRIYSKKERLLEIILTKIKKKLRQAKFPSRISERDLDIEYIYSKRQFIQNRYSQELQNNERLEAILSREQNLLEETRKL
T5 sequence (P38313 124-231, chain 2 of 2): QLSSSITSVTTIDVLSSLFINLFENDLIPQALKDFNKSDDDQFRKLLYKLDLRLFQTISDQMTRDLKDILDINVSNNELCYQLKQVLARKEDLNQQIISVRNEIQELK

Ame1^124‐231 = target: T6, Ame1^124‐231 (S. cerevisiae (budding yeast), UniProt P38313 124-231); assay: crystal structure; Okp1^125‐275 – Ame1^124‐231 mixed with Cse4^28‐60 peptide 1:1.3; hanging drop, 18°C, 19% PEG 8000, 0.55 M lithium sulfate; 1.8 Å, space group P4(2)2(1)2; settings: both partners purified
T6 construct: Ame1, budding yeast, residues 124-231; no tag; Single chain of m2, written for the pairwise contacts of the crystal structure; also called Ame1 (chain of the crystallised minimal heterodimer); source: E. coli Rosetta 2 (pLysS), co-expressed with Okp1^125‐275, purified
T6 sequence (P38313 124-231): as the sequence (P38313 124-231, chain 2 of 2) above

[7] = target: T5, minimal Okp1^125‐275 – Ame1^124‐231 …; assay: as above; settings: both partners purified
Okp1^125‐275 = target: T7, Okp1^125‐275 (S. cerevisiae (budding yeast), UniProt P53298 125-275); assay: as above; settings: both partners purified
T7 construct: Okp1, budding yeast, residues 125-275; Single chain of m2, written for the pairwise contacts of the crystal structure; also called Okp1 (chain of the crystallised minimal heterodimer); source: E. coli Rosetta 2 (pLysS), co-expressed with Ame1^124‐231, purified; not shown: His6, N-terminal, cleaved
T7 sequence (P53298 125-275): as the sequence (P53298 125-275, chain 1 of 2) above

[8] = target: T5, minimal Okp1^125‐275 – Ame1^124‐231 …; assay: pull-down; GST‐Cse4^28‐60 (or GST) mixed with prey, held on glutathione agarose resin, 4°C 1 h, 20 mM Tris pH 8.5, 200 mM NaCl, 1 mM TCEP; eluted with glutathione; SDS–PAGE; settings: both partners purified
[9] = target: T8, six‐protein COMA‐Nkp1‐Nkp2 complex (S. cerevisiae (budding yeast), UniProt P53298 1-406; P38313 1-324; Q02732 1-369; Q06675 1-368; Q12493 1-238; Q06162 …); assay: as above; settings: both partners purified
T8 construct: Okp1, budding yeast, full length; Ame1, budding yeast, full length; Ctf19, budding yeast, full length; Mcm21, budding yeast, full length; Nkp1, budding yeast, full length; Nkp2, budding yeast, full length; constructs as in Hinshaw & Harrison 2019; source: E. coli, purified heterodimers Okp1‐Ame1, Ctf19‐Mcm21 and Nkp1‐Nkp2; copies: + + + + +

[10] = target: T2, Okp1‐Ame1 heterodimer, full length, …; assay: as above; settings: both partners purified
[11] = target: T9, four‐protein COMA complex (Ctf19‐Okp1‐Mcm21‐Ame1) (S. cerevisiae (budding yeast), UniProt P53298 1-406; P38313 1-324; Q02732 1-369; Q06675 1-368); assay: as above; settings: both partners purified
T9 construct: Okp1, budding yeast, full length; Ame1, budding yeast, full length; Ctf19, budding yeast, full length; Mcm21, budding yeast, full length; constructs as in Hinshaw & Harrison 2019; source: E. coli, purified heterodimers Okp1‐Ame1 and Ctf19‐Mcm21; copies: + + +
T9 sequence (P53298 whole entry, chain 1 of 4): as the sequence (P53298 whole entry, chain 1 of 2) above
T9 sequence (P38313 whole entry, chain 2 of 4): as the sequence (P38313 whole entry I195Y, chain 2 of 2) above, with Y195I counted along it
T9 sequence (Q02732 whole entry, chain 3 of 4): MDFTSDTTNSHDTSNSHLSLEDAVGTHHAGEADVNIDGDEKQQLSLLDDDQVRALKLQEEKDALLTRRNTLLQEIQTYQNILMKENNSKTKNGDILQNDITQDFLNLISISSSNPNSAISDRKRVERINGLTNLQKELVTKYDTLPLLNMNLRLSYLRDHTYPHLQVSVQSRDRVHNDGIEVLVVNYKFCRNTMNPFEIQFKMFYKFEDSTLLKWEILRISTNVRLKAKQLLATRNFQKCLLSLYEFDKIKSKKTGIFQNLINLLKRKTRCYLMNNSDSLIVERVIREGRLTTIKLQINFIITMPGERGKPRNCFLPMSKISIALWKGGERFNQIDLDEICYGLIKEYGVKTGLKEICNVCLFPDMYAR
T9 sequence (Q06675 whole entry, chain 4 of 4): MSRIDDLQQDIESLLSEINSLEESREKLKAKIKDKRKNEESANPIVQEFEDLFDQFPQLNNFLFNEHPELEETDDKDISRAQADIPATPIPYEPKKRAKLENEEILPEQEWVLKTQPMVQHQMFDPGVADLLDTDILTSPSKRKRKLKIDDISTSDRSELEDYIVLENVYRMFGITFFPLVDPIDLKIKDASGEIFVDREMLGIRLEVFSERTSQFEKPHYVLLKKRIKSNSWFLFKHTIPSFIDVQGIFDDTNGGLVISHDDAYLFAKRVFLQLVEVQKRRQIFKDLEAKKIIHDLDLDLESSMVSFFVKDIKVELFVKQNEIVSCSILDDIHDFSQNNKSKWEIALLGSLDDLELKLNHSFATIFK

GST‐Cse4^END: Cse4 residues 28–60 with TEV‐cleavable N‐terminal Glutathione S‐transferase tag (AGDQQSINDRALSLLQRTRATKNLFPRREERRR; not fully specified (N-terminus))
binding in GST pulldown (COMA‐Nkp1‐Nkp2 complex): equally well
binding in GST pulldown [1]: preserved GST‐Cse4^END binding
binding in GST pulldown (Okp1‐Ame1): bound Okp1‐Ame1
binding in GST pulldown (COMA complex): equally well

cse4‐L41,42A: Cse4^END L41,42A mutant, GST fusion (AGDQQSINDRALSAAQRTRATKNLFPRREERRR; not fully specified (N-terminus))
binding in GST pulldown (Okp1‐Ame1): failed to bind

cse4‐L41D: Cse4^END L41D mutant, GST fusion (GST-TEV-Cse4^28-60(L41D)) (AGDQQSINDRALSDLQRTRATKNLFPRREERRR; not fully specified (N-terminus))
binding in GST pulldown (Okp1‐Ame1): failed to bind

cse4‐L42D: Cse4^END L42D mutant, GST fusion (GST-TEV-Cse4^28-60(L42D)) (AGDQQSINDRALSLDQRTRATKNLFPRREERRR; not fully specified (N-terminus))
binding in GST pulldown (Okp1‐Ame1): failed to bind

B1: FITC‐Cse4^28‐60 peptide (peptide, UniProt P36012 28-60, looked up)
peptide: AGDQQSINDRALSLLQRTRATKNLFPRREERRR
modifications: not fully specified (N-terminus); also: FITC label, position not given here
notes: Cse4, S. cerevisiae, residues 28-60; also called FITC‐Cse4^END; FITC‐labeled Cse4^END peptide; source: synthetic peptide (Tufts University Core Facility)
Kd [2]: > 3000 nM
Kd [3]: 152 nM
Kd [4]: > 3000 nM
Kd [5]: 133 nM
Kd [6]: ~750 nM

B2: Cse4^28‐60 peptide (Cse4^END peptide) (peptide, UniProt P36012 28-60, looked up)
peptide: AGDQQSINDRALSLLQRTRATKNLFPRREERRR
notes: Cse4, S. cerevisiae, residues 28-60 (residues 34-46 ordered in the crystal); also called minimal Cse4^END peptide; source: synthetic peptide (Tufts University Core facility)
binding result (Ame1^124‐231): binds
binding result [7]: binds
binding result (Okp1^125‐275): binds

B3: GST‐Cse4^END (GST fusion of Cse4 residues 28–60) (domain or fragment, S. cerevisiae, UniProt P36012 28-60, looked up)
chain: AGDQQSINDRALSLLQRTRATKNLFPRREERRR
notes: Cse4, centromeric histone H3 variant of S. cerevisiae, Essential N-terminal Domain, residues 28-60; The GST tag is TEV-cleavable (pLIC vector) but was kept for the pull-downs; also called GST‐Cse4^28‐60; source: E. coli Rosetta 2 (pLysS), purified (glutathione agarose); not shown: GST, N-terminal, kept
binding result [8]: binds
binding result [9]: binds
binding result [10]: binds
binding result [11]: binds
